Patent publication US20200255846A1 (INSTITUTE OF GENETICS AND DEVELOPMENTAL BIOLOGY CHINESE …, published 2020)

Molecular target: nYFP-OsCaM1-1 (rice calmodulin OsCaM1-1 fused with the N-terminal fragment of YFP) (rice, UniProt Q0JNS6 1-149)
Experiment: BiFC, nYFP-OsCaM1-1 and cYFP-GSE5 coexpressed in N. benthamiana leaves
Text: The coding sequence of GSE5 were amplified by specific primers ycGSE5-F/R, fused with the C-terminal fragment of YFP (cYFP), and then subcloned into the pGWB414 vector (Invitrogen) using in-fusion enzyme (Genebank Biosciences Inc, China). The N-terminal fragment of YFP (nYFP) was amplified from pSY736 using the primers YN-736-F and YN-736-R, fused with the OsCaM1-1 gene, and then subcloned into the pGWB414 vector (Invitrogen) using in-fusion enzyme (Genebank Biosciences Inc, China). nYFP-OsCaM1-1 and cYFP-GSE5 constructs were transformed into Agrobacterium strains GV3101. Transient expression of nYFP-OsCaM1-1 and cYFP-GSE5 in Nicotiana benthamiana leaves and fluorescence observation were conducted as described previously (Wang et al., 2016).

B1: cYFP-GSE5 (GSE5, GRAIN SIZE ON CHROMOSOME 5, fused with the C-terminal fragment of YFP) (other)
chain: MGKAARWFRNMWGGGRKEQKGEAPASGGKRWSFGKSSRDSAEAAAAAAAAAAEASGGNAAIARAAEAAWLRSVYADTEREQSKHAIAVAAATAAAADAAVAAAQAAVAVVRLTSKGRSAPVLAATVAGDTRSLAAAAVRIQTAFRGFLAKKALRALKALVKLQALVRGYLVRRQAAATLQSMQALVRAQATVRAHRSGAGAAANLPHLHHAPFWPRRSLQERCAGDDTRSEHGVAAYSRRLSASIESSSYGYDRSPKIVEVDTGRPKSRSSSSRRASSPLLLDAAGCASGGEDWCANSMSSPLPCYLPGGAPPPRIAVPTSRHFPDYDWCALEKARPATAQSTPRYAHAPPTPTKSVCGGGGGGGIHSSPLNCPNYMSNTQSFEAKVRSQSAPKQRPETGGAGAGGGRKRVPLSEVVVVESRASLSGVGMQRSCNRVQEAFNFKTAVVGRLDRSSESGENDRHAFLQRRW
notes: BiFC construct in pGWB414, transiently expressed inside Nicotiana benthamiana leaf cells (not on the cell surface); not shown: C-terminal fragment of YFP (cYFP)
B1: binds.
